Assay results as given in the nanobody polyreactivity screen of Harvey et al. (2022).

Assay: yeast display, Sf9 membrane polyspecificity reagent, FACS + sequencing; frameworks hold sequencing errors
In short: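 Nanobodies came from a synthetic yeast display library in Saccharomyces cerevisiae BJ5465, induced with galactose for 36–48 hours and stained for 1 hour at 4 °C with 10% biotinylated, detergent-solubilized Sf9 membrane reagent. Cells were enriched on streptavidin microbeads and then FACS-sorted, with low and high (top ~1%) gates set on anti-HA fluorescence for expression and streptavidin fluorescence for reagent binding. Each polyreactivity label reflects the gate a clone came from. Genes were amplified by colony PCR, sequenced by MiSeq 2 × 250 and filtered by CDR length.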

Which “polyreactivity (PSR sort gate)” value does the source give for “QVQLVESGGGLVQAGGSLRLSCAASGRTLRTYAMGWYRQAPGKERELVAAITSSGGRTYYADSVKGRFTISRDNAKNTVYLQMNSLKPEDTAVYYCAAARYYYGGDYWGQGTQVTVSS” here?
Its value is “high polyreactivity”.

With “QVQLVESGGGLVQAGGSLRLSCAASGRTLRTYTMGWYRQAPGKERELVAAISSSDDSTYYADSVKGRFTISRDNEKNTVYLQMNSLKPEDNAVYSCAKDGLYPTEYGYWGQGTQVTVSS” as the sequence, how does the “polyreactivity (PSR sort gate)” value read?
The value was “high polyreactivity”.

With “QVQLVESGGGLVQAGGSLRLSCAASGRTLRYYAMGWYRQAPGKERELVAAISRRGGRTYYADSVKGRFTISRDNAKNTVYLQMNSLKPEDTAVYYCNARYDVYRWRYDYDYWGQGTQVTVSS” as the sequence, how does the “polyreactivity (PSR sort gate)” value read?
Its value is “high polyreactivity”.

For “QVQLVESGGGLVQAGGSLRLSCAASGRTLSHYAMGWYRQAPGKERELVAAISQSGGSTRYADSVKGRFTISRDNAKNTVYLQMISLKPEDTAVYYCAVRQLYSYPGDRRGYYWGQGTQVTVSS”, which “polyreactivity (PSR sort gate)” value is on record?
The value was “high polyreactivity”.

Which “polyreactivity (PSR sort gate)” value does the source give for “QVQLVESGGGLVQAGGSLRLSCAASGRTLSRNAMGWYRQAPGKERELVAAINYSGGITYYADSVKGRFTISRDNAKNTVYLQMNSLKPEDTAVYYCAATVKYWGQGTQVTVSS” here?
Its value is “high polyreactivity”.

Which “polyreactivity (PSR sort gate)” value does the source give for “QVQLVESGGGLVQAGGSLRLSCAASGRTLSVNAMGWYRQAPGKERELVAAITWGGGSTYYADSVKGRFTISRDNAKNTVYLQMNSLKPEDTAVYYCNADPGWTELEYDYWGQGTQVTVSS” here?
Its value is “low polyreactivity”.

With “QVQLVESGGGLVQAGGSLRLSCAASGRTLSYNTMGWYRQAPGKEREFVAANTWSGGSTNYADSVKGRFTISRDNAKNTVYLQMNSLKPEDTAVYYCNADYLTVSWSIPEHVTVRLMYYWGQGTQVTVSS” as the sequence, how does the “polyreactivity (PSR sort gate)” value read?
Its value is “low polyreactivity”.

Which “polyreactivity (PSR sort gate)” value does the source give for “QVQLVESGGGLVQAGGSLRLSCAASGRTLTGNAMGWYRQAPGKERELVAAISWSAGSTYYADSVKGRFTISRDNAKNTVYLQMNSLKPEDTAVYYCALTLRRNLVRMGYWGLGTQVTVSS” here?
Its value is “high polyreactivity”.

For “QVQLVESGGGLVQAGGSLRLSCAASGRTLTQYAMGWYRQAPGTERELVAAINTSGDSTYYADSVKGRFTISRDNAKNTVYLQMNSLKPEDTAVYYCAADGFWSQLYHLYNGYDYWGQGTQVTVSS”, which “polyreactivity (PSR sort gate)” value is on record?
Its value is “low polyreactivity”.

Which “polyreactivity (PSR sort gate)” value does the source give for “QVQLVESGGGLVQAGGSLRLSCAASGRTLVPYAMGWYRQAPGKERELVAAINSSGGSTYYADSVKGRFTISRDNAKNTVYLQMNSLKPEDTAVYYCAATRYSKYYWGQGTQVTVSS” here?
The value was “high polyreactivity”.

With “QVQLVESGGGLVQAGGSLRLSCAASGRTLVTNAMGWYRQAPGKERELVAAIDSDDGTTYYADSVKGRFTISRDNAKKTVYLQMNSLKPEDTAVYYCAAESYWRDDYWGQGTQVTVSS” as the sequence, how does the “polyreactivity (PSR sort gate)” value read?
The value was “low polyreactivity”.

Which “polyreactivity (PSR sort gate)” value does the source give for “QVQLVESGGGLVQAGGSLRLSCAASGRTLWSYTMGWYRQAPGKERELVARITIGGSTNYADSVKGRFTISRDNAKNTVYLQMNSLKPEDTAVYYCNARASYSYGSYLSKSYGFDYWGQGTQVTVSS” here?
Its value is “high polyreactivity”.

Which “polyreactivity (PSR sort gate)” value does the source give for “QVQLVESGGGLVQAGGSLRLSCAASGRTLYGNVMGWYRQAPGKERELVAAISRRGGSTSYADSVKGRFTISRDNAKNTVYLQMNSLKPEDTAVYYCAAGRQRYAFKYYYWGQGTQVTVSS” here?
The value was “high polyreactivity”.

With “QVQLVESGGGLVQAGGSLRLSCAASGRTLYHNAMGWYRQAPGKERELVAAISYRGTRTYYADSVKGRFTISRDKAKNTVYLQKNSLTPEDTAVYYCAADTTYATKSDYWGQGTQVTVSS” as the sequence, how does the “polyreactivity (PSR sort gate)” value read?
Its value is “high polyreactivity”.

For “QVQLVESGGGLVQAGGSLRLSCAASGRTLYPYAMGWYRQAPGKERELVAAISSTGGRTYYADSVKGRFTISRDNAKNTVYLQMNSLKPEDTAVYYCAAIYRAQYDYWGQGTQVTVSS”, which “polyreactivity (PSR sort gate)” value is on record?
The value was “high polyreactivity”.

For “QVQLVESGGGLVQAGGSLRLSCAASGRTLYRNAMGWYRQSPWKDREFVSRITWSGASTYYADSVKGRFTISRDNAKNTVYLQMNSLKPEDTAVYYCAAQYLSRRYGPYYTYNYWGQGTQVTVSS”, which “polyreactivity (PSR sort gate)” value is on record?
The value was “high polyreactivity”.

With “QVQLVESGGGLVQAGGSLRLSCAASGRTLYYKAMGWYRQAPGKERELVAAISRSGGSTYYADSVKGRFTISRDNAKNTVYLQMNSLKPEDTAVYYCAVLPSYTSWESSDYWGQGTQVTVSS” as the sequence, how does the “polyreactivity (PSR sort gate)” value read?
The value was “high polyreactivity”.

For “QVQLVESGGGLVQAGGSLRLSCAASGRTLYYNTMGWYRQAPGKERELVASIRWDGGSTNYADSVNGRFTISRDNAKNTVYLQMNSLKPEDTAVYYCNADPGWTELEYDYWGQGTQVTVSS”, which “polyreactivity (PSR sort gate)” value is on record?
The value was “low polyreactivity”.

For “QVQLVESGGGLVQAGGSLRLSCAASGRTMWAYSMGWYRPAHGKERELVAAITGSGGSTYYADSVKGRFTISRDNAKNTVYLQMNSLKPEDTAVYYCAAYSRTLHYDSWGQGTHVTVSS”, which “polyreactivity (PSR sort gate)” value is on record?
Its value is “high polyreactivity”.

For “QVQLVESGGGLVQAGGSLRLSCAASGRTSASNAMGWYREAPGKERELVATIDGIDGNTYYADSVKGRFTISRDNAKNTVYLQMNSLKPEDTAVYYCNVESWRLQAIYKYSYWGQGTQVTVSS”, which “polyreactivity (PSR sort gate)” value is on record?
Its value is “low polyreactivity”.

With “QVQLVESGGGLVQAGGSLRLSCAASGRTSAWYAMGWYRQAPGKERELVADISGSADSTYYADSVKGRFTISRDNAKNTVYLQMNSLKPEDTAVYYCATSISTPSGDPFDYWGQGTQVTVSS” as the sequence, how does the “polyreactivity (PSR sort gate)” value read?
Its value is “low polyreactivity”.

For “QVQLVESGGGLVQAGGSLRLSCAASGRTSDGYAMGWYRPAPGKERELVAGITEGGGDTYYADSVKGRFTISRDNAKNTVYLQMNSLKPEDTAVYYCNAVEGSRLPYDYWGQGTQVTVSS”, which “polyreactivity (PSR sort gate)” value is on record?
The value was “low polyreactivity”.

Which “polyreactivity (PSR sort gate)” value does the source give for “QVQLVESGGGLVQAGGSLRLSCAASGRTSDINTMGWYRQAPGKERELVAAISDSDGTTYYADSVKGRFTISRDNAKNTVYLQMNSLKPDDTAVYYCAAERATVKFGYWGQGTQVTVSS” here?
Its value is “low polyreactivity”.

For “QVQLVESGGGLVQAGGSLRLSCAASGRTSFGYAMGWYRQAPGKERELVAVISIGGTTYYADSVKGRFTISRDNAKNTVYLQMNSLKPEDTAVYYCAATPSNATGFLSYDYWGQGTQVTVSS”, which “polyreactivity (PSR sort gate)” value is on record?
The value was “low polyreactivity”.

Which “polyreactivity (PSR sort gate)” value does the source give for “QVQLVESGGGLVQAGGSLRLSCAASGRTSGGNAMGWYRQAPGKERELVAAISLRGGGTYYADSVKGRFTISRDNAKNTVYLQMNSLIPEDTAVFYCAAEFTYYGARWGYLGDLDYWGQGTQVTVSS” here?
The value was “high polyreactivity”.

For “QVQLVESGGGLVQAGGSLRLSCAASGRTSKRYAMGWYRQAPGKERELVASIRGGDGSTYYADSVKGRFTISRDNAKNTVYLQMNSLKPEDTAVYYCARASSYGYYYWGQGTQVTVSS”, which “polyreactivity (PSR sort gate)” value is on record?
The value was “high polyreactivity”.

With “QVQLVESGGGLVQAGGSLRLSCAASGRTSLGYDMGWYRQAPGKERELVAAITRGGSTYYADSVKGRFTISRDNAKNTVYLQMNSLKPEDTAVYYCAARPWTSASYDYWGQGTQVTVSS” as the sequence, how does the “polyreactivity (PSR sort gate)” value read?
The value was “low polyreactivity”.

For “QVQLVESGGGLVQAGGSLRLSCAASGRTSLNYAMGWYRQAPGKERELVAAITRGGGGTYYADSVKGRFTISRDNAKNTVYLQMNSLIPEDTAVYYCNRVFSLYGYGWQKYDYWGQGTQVTVSS”, which “polyreactivity (PSR sort gate)” value is on record?
The value was “high polyreactivity”.

Which “polyreactivity (PSR sort gate)” value does the source give for “QVQLVESGGGLVQAGGSLRLSCAASGRTSPRYAMGWYRQAPGKEREWVASISGSGGRTYYADSVKGRFTISRDNAKNTVYLQMNSLKPEDTAVYYCAASTQGNYYPYKRYDYCGQGTQVTVSS” here?
The value was “high polyreactivity”.

Which “polyreactivity (PSR sort gate)” value does the source give for “QVQLVESGGGLVQAGGSLRLSCAASGRTSREYAMGWYRQAPGKERELVAAISWNGGSTYYADSVKGRFTISRDNAMNTVYLQMNSLKPEDTAVYYCAARGKGYYRFGYWGQGTQVTVSS” here?
The value was “high polyreactivity”.

With “QVQLVESGGGLVQAGGSLRLSCAASGRTSSSNAMGWYRQAPGKERELVATISRTGSTYYADSVKGRFTISRDNAKNTVYLQMNSLKPEDTAVYYCNRYFSEALLHGSCYNRYYYWGQGTQVTVSS” as the sequence, how does the “polyreactivity (PSR sort gate)” value read?
The value was “low polyreactivity”.

For “QVQLVESGGGLVQAGGSLRLSCAASGRTSVLYAMGWYRQAPGKEREFVAAITWNSGSTYYADSVKGRFTISRDNAKNTVYLQMNSLKPEDTAVYYCNADYYFSSYRSTYDYWGQGTQVTVSS”, which “polyreactivity (PSR sort gate)” value is on record?
Its value is “low polyreactivity”.
